Assay results as given in the Immune Epitope Database (IEDB).

Experiments:
Experiment in all cases: IEDB peptide-MHC binding, purified MHC/competitive/radioactivity; filed as Kd, often an IC50 or EC50 that approximates it; ≥ and ≤ were set here for values at or beyond the usual limits of such assays
HLA-A*02:06 = biological target: HLA-A*02:06
HLA-A*02:03 = biological target: HLA-A*02:03
HLA-A*02:02 = biological target: HLA-A*02:02
HLA-A*11:01 = biological target: HLA-A*11:01
HLA-A*68:01 = biological target: HLA-A*68:01
HLA-A*31:01 = biological target: HLA-A*31:01
HLA-A*03:01 = biological target: HLA-A*03:01
HLA-A*33:01 = biological target: HLA-A*33:01
[1] = source organism: Vaccinia virus WR
[2] = source organism: SARS coronavirus Tor2
[3] = source organism: Dengue virus 4 Philippines/H241/1956
[4] = source organism: Dengue virus 1 Brazil/97-11/1997
[5] = source organism: Dengue virus 3 Martinique/1243/1999
[6] = source organism: Lassa virus Josiah
[7] = source organism: Mammarenavirus juninense
[8] = source organism: Lymphocytic choriomeningitis virus (strain Armstrong)

Row | Sequence | Kd (HLA-A*02:06; [1]) [nM] | Kd (HLA-A*02:03; [1]) [nM] | Kd (HLA-A*02:02; [1]) [nM] | also measured
1 | AATKRYPGVM | ≥ 46900 | ≥ 47900 | ≥ 20100 | –
2 | AIAACAMLLV | – | – | – | Kd (HLA-A*02:06; [2]): 77.8 nM; Kd (HLA-A*02:03; [2]): 31.6 nM; Kd (HLA-A*02:02; [2]): 5.9 nM
3 | CLKNEGVSGL | 14100 | 25.1 | 127 | –
4 | DVDIPTFNSL | 9710 | 1030 | 1810 | –
5 | EIDVSEVKTL | ≥ 56000 | 2240 | 4950 | –
6 | ELMMTTIGIV | – | – | – | Kd (HLA-A*02:03; source organism: Dengue virus 2 Peru/IQT2913/1996): 2.02 nM
7 | EVMPEKRNVV | 12100 | 2620 | ≥ 20200 | –
8 | FANVISKIYT | 1660 | 5310 | 7790 | –
9 | FMAYMIGQT | – | – | – | Kd (HLA-A*02:03; [3]): 6.07 nM
10 | FMEEEIKAEM | 865 | 3070 | 1030 | –
11 | FMRFFTLGSI | – | – | – | Kd (HLA-A*02:06; [2]): 195 nM; Kd (HLA-A*02:03; [2]): 0.76 nM; Kd (HLA-A*02:02; [2]): 24.2 nM
12 | FQFICNLLLL | – | – | – | Kd (HLA-A*02:06; [2]): 0.87 nM; Kd (HLA-A*02:03; [2]): 62 nM; Kd (HLA-A*02:02; [2]): 7.94 nM
13 | GALDVSASV | – | – | – | Kd (HLA-A*02:06; [2]): 2.27 nM; Kd (HLA-A*02:03; [2]): 2.34 nM; Kd (HLA-A*02:02; [2]): 0.718 nM
14 | GIADIRDKYM | 1780 | 48.2 | 0.693 | –
15 | GIYNCCESNI | 290 | 140 | 68.3 | –
16 | GMAMTTVLSI | – | – | – | Kd (HLA-A*02:03; [3]): 6.52 nM
17 | GVLIAGIIL | 951 | 1040 | 5240 | –
18 | HLTENNLYI | 1810 | 14400 | 114 | –
19 | IASILSLETV | 47.3 | 92.8 | 234 | –
20 | IAVASGLLWV | – | – | – | Kd (HLA-A*02:06; [3]): 10.6 nM
21 | ILYYGANGST | 1840 | 39.3 | 341 | –
22 | IMQVFFGYFA | – | – | – | Kd (HLA-A*02:06; [2]): 51.1 nM; Kd (HLA-A*02:03; [2]): 1570 nM; Kd (HLA-A*02:02; [2]): 590 nM
23 | IMSIGFEARI | 1600 | 1500 | 703 | –
24 | IMSMMNITRL | 585 | 106 | 61.8 | –
25 | KLFTIAMWLL | – | – | – | Kd (HLA-A*02:06; [2]): 262 nM; Kd (HLA-A*02:03; [2]): 709 nM; Kd (HLA-A*02:02; [2]): 8.53 nM
26 | KLKVDSDSGL | ≥ 10000 | 55.8 | 74.6 | –

Row | Sequence | Kd (HLA-A*02:06; [1]) [nM] | Kd (HLA-A*02:03; [1]) [nM] | Kd (HLA-A*02:02; [1]) [nM] | also measured
27 | KLYIALCKVT | 6360 | 625 | 7110 | –
28 | KTPVIVVPVI | 1890 | 6200 | 9090 | –
29 | LAELLEMKYA | 2450 | 1040 | 999 | –
30 | LATLNTLIT | 14200 | 1550 | 1160 | –
31 | LIQYRQQLEL | ≥ 52600 | 19500 | ≥ 32800 | –
32 | LLKNDVPLA | – | – | – | Kd (HLA-A*02:03; [4]): 8.25 nM
33 | LLLGVGLAMA | – | – | – | Kd (HLA-A*02:06; [5]): 3.81 nM; Kd (HLA-A*02:03; [5]): 2.33 nM
34 | LLVAHYAII | – | – | – | Kd (HLA-A*02:03; source organism: Dengue virus 2 Jamaica/1409/1983): 27.3 nM
35 | LMSDNPKAST | ≥ 47700 | 938 | 8880 | –
36 | LTQIFEVYWY | – | – | – | Kd (HLA-A*11:01; [1]): 348 nM; Kd (HLA-A*68:01; [1]): 936 nM; Kd (HLA-A*31:01; [1]): 934 nM; Kd (HLA-A*03:01; [1]): 990 nM; Kd (HLA-A*33:01; [1]): 1260 nM
37 | LVITYCLVT | 8000 | 3250 | 6980 | –
38 | MLQKEYMER | – | – | – | Kd (HLA-A*11:01; [6]): 1360 nM; Kd (HLA-A*68:01; [6]): 33.3 nM; Kd (HLA-A*31:01; [6]): 100 nM; Kd (HLA-A*03:01; [6]): 11000 nM; Kd (HLA-A*33:01; [6]): 193 nM
39 | MMVILPDKI | 909 | 16.3 | 69.2 | –
40 | MRYTCLNSEK | – | – | – | Kd (HLA-A*11:01; [7]): ≥ 49100 nM; Kd (HLA-A*68:01; [7]): 10100 nM; Kd (HLA-A*31:01; [7]): 5030 nM; Kd (HLA-A*03:01; [7]): 283 nM; Kd (HLA-A*33:01; [7]): 6780 nM
41 | NITLKIIETY | – | – | – | Kd (HLA-A*11:01; [1]): 414 nM; Kd (HLA-A*68:01; [1]): 444 nM; Kd (HLA-A*31:01; [1]): 1210 nM; Kd (HLA-A*03:01; [1]): ≥ 70100 nM; Kd (HLA-A*33:01; [1]): ≥ 20700 nM
42 | NITTLLNETA | 1130 | 106 | 218 | –
43 | NIVTDLENRL | 1550 | 17600 | 261 | –
44 | NLFSKNILKY | – | – | – | Kd (HLA-A*11:01; [1]): 16300 nM; Kd (HLA-A*68:01; [1]): 8770 nM; Kd (HLA-A*31:01; [1]): ≥ 70000 nM; Kd (HLA-A*03:01; [1]): 656 nM; Kd (HLA-A*33:01; [1]): ≥ 70000 nM
45 | NMDKVSAQNI | ≥ 69800 | 16800 | 8020 | –
46 | NSCSIGNVTR | – | – | – | Kd (HLA-A*11:01; [1]): 890 nM; Kd (HLA-A*68:01; [1]): 6.73 nM; Kd (HLA-A*31:01; [1]): 34.1 nM; Kd (HLA-A*03:01; [1]): ≥ 70100 nM; Kd (HLA-A*33:01; [1]): 16.1 nM
47 | NSLILLECFV | – | – | – | Kd (HLA-A*02:06; [8]): 4.17 nM; Kd (HLA-A*02:03; [8]): 46.6 nM; Kd (HLA-A*02:02; [8]): 1.21 nM
48 | PASISSVLT | 1490 | 1360 | 1380 | –
49 | PQDNQLAYV | – | – | – | Kd (HLA-A*02:06; [4]): 166 nM
50 | PTILATLNTL | 771 | 130 | 374 | –
51 | QFKQDAKYSH | – | – | – | Kd (HLA-A*11:01; [6]): ≥ 69700 nM; Kd (HLA-A*68:01; [6]): ≥ 70100 nM; Kd (HLA-A*31:01; [6]): 18200 nM; Kd (HLA-A*03:01; [6]): ≥ 70000 nM; Kd (HLA-A*33:01; [6]): 10600 nM
